US20160327558

Assays:
[1] = target: T1, probe 5 (FITC-LRSR-AOMK)
T1 chain: LRSR

[2] = target: T2, z-VRPR-FMK (not fully specified)
T2 chain: VRPR

[3] = target: T3, FLAG-A20, P21580
T3 chain: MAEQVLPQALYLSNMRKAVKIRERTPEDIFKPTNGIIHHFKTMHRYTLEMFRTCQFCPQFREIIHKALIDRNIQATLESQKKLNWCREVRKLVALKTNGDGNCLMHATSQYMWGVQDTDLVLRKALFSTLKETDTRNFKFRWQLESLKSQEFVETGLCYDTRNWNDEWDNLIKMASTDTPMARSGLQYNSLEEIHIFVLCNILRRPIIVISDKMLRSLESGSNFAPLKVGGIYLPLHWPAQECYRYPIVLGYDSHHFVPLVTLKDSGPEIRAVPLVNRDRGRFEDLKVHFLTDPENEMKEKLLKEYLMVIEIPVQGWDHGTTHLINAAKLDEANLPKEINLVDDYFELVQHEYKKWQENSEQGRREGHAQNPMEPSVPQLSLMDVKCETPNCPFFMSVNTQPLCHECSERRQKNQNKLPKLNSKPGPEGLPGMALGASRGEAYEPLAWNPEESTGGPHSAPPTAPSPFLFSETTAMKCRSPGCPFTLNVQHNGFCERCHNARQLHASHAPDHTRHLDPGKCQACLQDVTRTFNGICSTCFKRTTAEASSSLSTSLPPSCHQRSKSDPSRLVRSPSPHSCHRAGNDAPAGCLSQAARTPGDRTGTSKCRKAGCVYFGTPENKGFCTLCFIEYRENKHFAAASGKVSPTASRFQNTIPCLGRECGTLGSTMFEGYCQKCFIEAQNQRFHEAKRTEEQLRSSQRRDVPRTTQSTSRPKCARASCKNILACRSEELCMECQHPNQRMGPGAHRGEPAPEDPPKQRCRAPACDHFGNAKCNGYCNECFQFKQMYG

B1: recombinant Caspase-8 (protein)
chain: SESQTLDKVYQMKSKPRGYCLIINNHNFAKAREKVPKLHSIRDRNGTHLDAGALTTTFEELHFEIKPHDDCTVEQIYEILKIYQLMDHSNMDCFICCILSHGDKGIIYGTDGQEAPIYELTSQFTGLKCPSLAGKPKVFFIQACQGDNYQKGIPVETDSEEQPYLEMDLSSPQTRYIPDEADFLLGMATVNNCVSYRNPAEGTWYIQSLCQSLRERCPRGDDILTILTEVNYEVSNKDDKKNMGKQMPQPTFTLRKKLVFPSD
[1]
  in vitro protease activity measurements (DEVD-AMC cleavage): As expected, Caspase 8 activity was not affected by the diagnostic inhibitors of MALT1 of the present invention

B2: MALT1 (in vitro cleavage assay of FIG. 3C) (protein)
chain: MSLLGDPLQALPPSAAPTGPLLAPPAGATLNRLREPLLRRLSELLDQAPEGRGWRRLAELAGSRGRLRLSCLDLEQCSLKVLEPEGSPSLCLLKLMGEKGCTVTELSDFLQAMEHTEVLQLLSPPGIKITVNPESKAVLAGQFVKLCCRATGHPFVQYQWFKMNKEIPNGNTSELIFNAVHVKDAGFYVCRVNNNFTFEFSQWSQLDVCDIPESFQRSVDGVSESKLQICVEPTSQKLMPGSTLVLQCVAVGSPIPHYQWFKNELPLTHETKKLYMVPYVDLEHQGTYWCHVYNDRDSQDSKKVEIIIDELNNLGHPDNKEQTTDQPLAKDKVALLIGNMNYREHPKLKAPLVDVYELTNLLRQLDFKVVSLLDLTEYEMRNAVDEFLLLLDKGVYGLLYYAGHGYENFGNSFMVPVDAPNPYRSENCLCVQNILKLMQEKETGLNVFLLDMCRKRNDYDDTIPILDALKVTANIVFGYATCQGAEAFEIQHSGLANGIFMKFLKDRLLEDKKITVLLDEVAEDMGKCHLTKGKQALEIRSSLSEKRALTDPIQGTEYSAESLVRNLQWAKAHELPESMCLKFDCGVQIQLGFAAEFSNVMIIYTSIVYKPPEIIMCDAYVTDFPLDLDIDPKDANKGTPEETGSYLVSKDLPKHCLYTRLSSLQKLKEHLVFTVCLSYQYSGLEDTVEDKQEVNVGKPLIAKLDMHRGLGRKTCFQTCLMSNGPYQSSAATSGGAGHYHSLQDPFHGVYHSHPGNPSNVTPADSCHCSRTPDAFISSFAHHASCHFSRSNVPVETTDEIPFSFSDRLRISEK
[2]
  in vitro protease activity measurements (cleavage of fluorescent substrates): probe 5 and also z-VRPR-FMK did not only inhibit MALT1
[1]
  in vitro protease activity measurements (cleavage of fluorescent substrates): probe 5 and also z-VRPR-FMK did not only inhibit MALT1

B3: FLAG-MALT1 wt (MALT1 Isoform B, overexpressed in Jurkat T cells) (protein)
chain: SLLGDPLQALPPSAAPTGPLLAPPAGATLNRLREPLLRRLSELLDQAPEGRGWRRLAELAGSRGRLRLSCLDLEQCSLKVLEPEGSPSLCLLKLMGEKGCTVTELSDFLQAMEHTEVLQLLSPPGIKITVNPESKAVLAGQFVKLCCRATGHPFVQYQWFKMNKEIPNGNTSELIFNAVHVKDAGFYVCRVNNNFTFEFSQWSQLDVCDIPESFQRSVDGVSESKLQICVEPTSQKLMPGSTLVLQCVAVGSPIPHYQWFKNELPLTHETKKLYMVPYVDLEHQGTYWCHVYNDRDSQDSKKVEIIIDELNNLGHPDNKEQTTDQPLAKDKVALLIGNMNYREHPKLKAPLVDVYELTNLLRQLDFKVVSLLDLTEYEMRNAVDEFLLLLDKGVYGLLYYAGHGYENFGNSFMVPVDAPNPYRSENCLCVQNILKLMQEKETGLNVFLLDMCRKRNDYDDTIPILDALKVTANIVFGYATCQGAEAFEIQHSGLANGIFMKFLKDRLLEDKKITVLLDEVAEDMGKCHLTKGKQALEIRSSLSEKRALTDPIQGTEYSAESLVRNLQWAKAHELPESMCLKFDCGVQIQLGFAAEFSNVMIIYTSIVYKPPEIIMCDAYVTDFPLDLDIDPKDANKGTPEETGSYLVSKDLPKHCLYTRLSSLQKLKEHLVFTVCLSYQYSGLEDTVEDKQEVNVGKPLIAKLDMHRGLGRKTCFQTCLMSNGPYQSSAATSGGAGHYHSLQDPFHGVYHSHPGNPSNVTPADSCHCSRTPDAFISSFAHHASCHFSRSNVPVETTDEIPFSFSDRLRISEK
[3]
  MALT1 cleavage of A20, analyzed by western blot: only wt MALT1 is capable of cleaving its substrates

B4: FLAG-MALT1 active site mutant C464A (C453A in Isoform B) (protein)
chain: SLLGDPLQALPPSAAPTGPLLAPPAGATLNRLREPLLRRLSELLDQAPEGRGWRRLAELAGSRGRLRLSCLDLEQCSLKVLEPEGSPSLCLLKLMGEKGCTVTELSDFLQAMEHTEVLQLLSPPGIKITVNPESKAVLAGQFVKLCCRATGHPFVQYQWFKMNKEIPNGNTSELIFNAVHVKDAGFYVCRVNNNFTFEFSQWSQLDVCDIPESFQRSVDGVSESKLQICVEPTSQKLMPGSTLVLQCVAVGSPIPHYQWFKNELPLTHETKKLYMVPYVDLEHQGTYWCHVYNDRDSQDSKKVEIIIDELNNLGHPDNKEQTTDQPLAKDKVALLIGNMNYREHPKLKAPLVDVYELTNLLRQLDFKVVSLLDLTEYEMRNAVDEFLLLLDKGVYGLLYYAGHGYENFGNSFMVPVDAPNPYRSENCLCVQNILKLMQEKETGLNVFLLDMARKRNDYDDTIPILDALKVTANIVFGYATCQGAEAFEIQHSGLANGIFMKFLKDRLLEDKKITVLLDEVAEDMGKCHLTKGKQALEIRSSLSEKRALTDPIQGTEYSAESLVRNLQWAKAHELPESMCLKFDCGVQIQLGFAAEFSNVMIIYTSIVYKPPEIIMCDAYVTDFPLDLDIDPKDANKGTPEETGSYLVSKDLPKHCLYTRLSSLQKLKEHLVFTVCLSYQYSGLEDTVEDKQEVNVGKPLIAKLDMHRGLGRKTCFQTCLMSNGPYQSSAATSGGAGHYHSLQDPFHGVYHSHPGNPSNVTPADSCHCSRTPDAFISSFAHHASCHFSRSNVPVETTDEIPFSFSDRLRISEK
[3]
  MALT1 cleavage of A20, analyzed by western blot: only wt MALT1 is capable of cleaving its substrates (the mutant does not cleave)
